Measurements as given in patent US20230065562A1, “DUAL CONTROLS FOR THERAPEUTIC CELL ACTIVATION OR ELIMINATION” (Bellicum Pharmaceuticals, Inc., priority 2015, published 2023).
“Also recorded” adds a separate entry of the source.

Test system: HEK293T/16 cells
Test: Secreted alkaline phosphatase (SEAP)-based surrogate killing assay of iCasp9 mutants
Assay type: cell-based, human
Settings: for Basal Activity (relative to wild type/unmodified Caspase-9): SEAP assay without AP1903; for basal activity: relative SEAP activity Units: no AP1903
Protocol: Early passage HEK293T/16 cells (ATCC, Manassas, Va.) were maintained in IMDM, GlutaMAX™ (Life Technologies, Carlsbad, Calif.) supplemented with 10% FBS, 100 U/mL penicillin, and 100 […] until transfection in a humidified, 37° C., 5% CO2/95% air atmosphere. Cells in logarithmic-phase growth were transiently transfected with 800 ng to 2 μg of expression plasmid encoding iCasp9 mutants and 500 ng of an expression plasmid encoding SRα promoter driven SEAP per million cells in 15-mL conical tubes. […] GeneJammer® Transfection Reagent at a ratio of 3 μl per ug of plasmid DNA was used to transiently transfect HEK293T/16 cells in the absence of antibiotics. 100 μl or 2 mL of the transfection mixture was added to each well in 96-well or 6-well plate, respectively.
Briefly, after 65° C. heat denaturation for 45 minutes to reduce background caused by endogenous (and serum-derived) alkaline phosphatases that are sensitive to heat, 5 μl of supernatants was added to 95 μl of PBS and added to 100 μl of substrate buffer, containing 1 μl of 100 mM 4-methylumbelliferyl phosphate (4-MUP; Sigma, St. Louis, Mo.) re-suspended in 2 M diethanolamine. Hydrolysis of 4-MUP by SEAP produces a fluorescent […] with excitation/emission (355/460 nm), which can be easily measured. Assays were performed in black opaque 96-well plates to minimize fluorescence leakage between wells. […] of the mixture was seeded onto each well of a 96-well plate. […] For the assay, 4-methylumbelliferyl phosphate substrate was hydrolyzed by SEAP to 4-methylumbelliferon, a metabolite that can be excited with 364 nm and detected with an emission filter of 448 nm. Since SEAP is used as a marker for cell viability, reduced SEAP reading corresponds with increased iCaspase-9 activities.

B1: F404A: modified iCasp9, F404A (protein, UniProt P55211 1-416, looked up, variant F404A)
chain: MDEADRRLLRRCRLRLVEELQVDQLWDALLSRELFRPHMIEDIQRAGSGSRRDQARQLIIDLETRGSQALPLFISCLEDTGQDMLASFLRTNRQAAKLSKPTLENLTPVVLRPEIRKPEVLRPETPRPVDIGSGGFGDVGALESLRGNADLAYILSMEPCGHCLIINNVNFCRESGLRTRTGSNIDCEKLRRRFSSLHFMVEVKGDLTAKKMVLALLELAQQDHGALDCCVVVILSHGCQASHLQFPGAVYGTDGCPVSVEKIVNIFNGTSCPSLGGKPKLFFIQACGGEQKDHGFEVASTSPEDESPGSNPEPDATPFQEGLRTFDQLDAISSLPTPSDIFVSYSTFPGFVSWRDPKSGSWYVETLDDIFEQWAHSEDLQSLLLRVANAVSVKGIYKQMPGCANFLRKKLFFKTS
modifications: FKBP12-F36V fusion (iCasp9), CARD deleted
Basal Activity (relative to wild type/unmodified Caspase-9): lowered basal activity and dead

B2: F406W: modified iCasp9, F406W (protein, UniProt P55211 1-416, looked up, variant F406W)
chain: MDEADRRLLRRCRLRLVEELQVDQLWDALLSRELFRPHMIEDIQRAGSGSRRDQARQLIIDLETRGSQALPLFISCLEDTGQDMLASFLRTNRQAAKLSKPTLENLTPVVLRPEIRKPEVLRPETPRPVDIGSGGFGDVGALESLRGNADLAYILSMEPCGHCLIINNVNFCRESGLRTRTGSNIDCEKLRRRFSSLHFMVEVKGDLTAKKMVLALLELAQQDHGALDCCVVVILSHGCQASHLQFPGAVYGTDGCPVSVEKIVNIFNGTSCPSLGGKPKLFFIQACGGEQKDHGFEVASTSPEDESPGSNPEPDATPFQEGLRTFDQLDAISSLPTPSDIFVSYSTFPGFVSWRDPKSGSWYVETLDDIFEQWAHSEDLQSLLLRVANAVSVKGIYKQMPGCFNWLRKKLFFKTS
modifications: FKBP12-F36V fusion (iCasp9), CARD deleted
Basal Activity (relative to wild type/unmodified Caspase-9): lowered basal activity; also recorded: Decreased

B3: N405T: modified iCasp9, N405T (protein, UniProt P55211 1-416, looked up, variant N405T)
chain: MDEADRRLLRRCRLRLVEELQVDQLWDALLSRELFRPHMIEDIQRAGSGSRRDQARQLIIDLETRGSQALPLFISCLEDTGQDMLASFLRTNRQAAKLSKPTLENLTPVVLRPEIRKPEVLRPETPRPVDIGSGGFGDVGALESLRGNADLAYILSMEPCGHCLIINNVNFCRESGLRTRTGSNIDCEKLRRRFSSLHFMVEVKGDLTAKKMVLALLELAQQDHGALDCCVVVILSHGCQASHLQFPGAVYGTDGCPVSVEKIVNIFNGTSCPSLGGKPKLFFIQACGGEQKDHGFEVASTSPEDESPGSNPEPDATPFQEGLRTFDQLDAISSLPTPSDIFVSYSTFPGFVSWRDPKSGSWYVETLDDIFEQWAHSEDLQSLLLRVANAVSVKGIYKQMPGCFTFLRKKLFFKTS
modifications: FKBP12-F36V fusion (iCasp9), CARD deleted
Basal Activity (relative to wild type/unmodified Caspase-9): increased basal activity

B4: F406A: modified iCasp9, F406A (protein, UniProt P55211 1-416, looked up, variant F406A)
chain: MDEADRRLLRRCRLRLVEELQVDQLWDALLSRELFRPHMIEDIQRAGSGSRRDQARQLIIDLETRGSQALPLFISCLEDTGQDMLASFLRTNRQAAKLSKPTLENLTPVVLRPEIRKPEVLRPETPRPVDIGSGGFGDVGALESLRGNADLAYILSMEPCGHCLIINNVNFCRESGLRTRTGSNIDCEKLRRRFSSLHFMVEVKGDLTAKKMVLALLELAQQDHGALDCCVVVILSHGCQASHLQFPGAVYGTDGCPVSVEKIVNIFNGTSCPSLGGKPKLFFIQACGGEQKDHGFEVASTSPEDESPGSNPEPDATPFQEGLRTFDQLDAISSLPTPSDIFVSYSTFPGFVSWRDPKSGSWYVETLDDIFEQWAHSEDLQSLLLRVANAVSVKGIYKQMPGCFNALRKKLFFKTS
modifications: FKBP12-F36V fusion (iCasp9), CARD deleted
Basal Activity (relative to wild type/unmodified Caspase-9): lowered basal activity; also recorded: Decreased

B5: G402I: modified iCasp9, G402I (protein, UniProt P55211 1-416, looked up, variant G402I)
chain: MDEADRRLLRRCRLRLVEELQVDQLWDALLSRELFRPHMIEDIQRAGSGSRRDQARQLIIDLETRGSQALPLFISCLEDTGQDMLASFLRTNRQAAKLSKPTLENLTPVVLRPEIRKPEVLRPETPRPVDIGSGGFGDVGALESLRGNADLAYILSMEPCGHCLIINNVNFCRESGLRTRTGSNIDCEKLRRRFSSLHFMVEVKGDLTAKKMVLALLELAQQDHGALDCCVVVILSHGCQASHLQFPGAVYGTDGCPVSVEKIVNIFNGTSCPSLGGKPKLFFIQACGGEQKDHGFEVASTSPEDESPGSNPEPDATPFQEGLRTFDQLDAISSLPTPSDIFVSYSTFPGFVSWRDPKSGSWYVETLDDIFEQWAHSEDLQSLLLRVANAVSVKGIYKQMPICFNFLRKKLFFKTS
modifications: FKBP12-F36V fusion (iCasp9), CARD deleted
Basal Activity (relative to wild type/unmodified Caspase-9): dead | Basal Activity (relative to wild type/unmodified Caspase-9) (listed as G4021): catalytically inactive

B6: N405A: modified iCasp9, N405A (protein, UniProt P55211 1-416, looked up, variant N405A)
chain: MDEADRRLLRRCRLRLVEELQVDQLWDALLSRELFRPHMIEDIQRAGSGSRRDQARQLIIDLETRGSQALPLFISCLEDTGQDMLASFLRTNRQAAKLSKPTLENLTPVVLRPEIRKPEVLRPETPRPVDIGSGGFGDVGALESLRGNADLAYILSMEPCGHCLIINNVNFCRESGLRTRTGSNIDCEKLRRRFSSLHFMVEVKGDLTAKKMVLALLELAQQDHGALDCCVVVILSHGCQASHLQFPGAVYGTDGCPVSVEKIVNIFNGTSCPSLGGKPKLFFIQACGGEQKDHGFEVASTSPEDESPGSNPEPDATPFQEGLRTFDQLDAISSLPTPSDIFVSYSTFPGFVSWRDPKSGSWYVETLDDIFEQWAHSEDLQSLLLRVANAVSVKGIYKQMPGCFAFLRKKLFFKTS
modifications: FKBP12-F36V fusion (iCasp9), CARD deleted
Basal Activity (relative to wild type/unmodified Caspase-9): no effect

B7: F404W: modified iCasp9, F404W (protein)
chain: VDGFGDVGALESLRGNADLAYILSMEPCGHCLIINNVNFCRESGLRTRTGSNIDCEKLRRRFSSLHFMVEVKGDLTAKKMVLALLELARQDHGALDCCVVVILSHGCQASHLQFPGAVYGTDGCPVSVEKIVNIFNGTSCPSLGGKPKLFFIQACGGEQKDHGFEVASTSPEDESPGSNPEPDATPFQEGLRTFDQLDAISSLPTPSDIFVSYSTFPGFVSWRDPKSGSWYVETLDDIFEQWAHSEDLQSLLLRVANAVSVKGIYKQMPGCWNFLRKKLFFKTSASRA
Basal Activity (relative to wild type/unmodified Caspase-9): lowered basal activity; also recorded: Decreased

B8: F406T: modified iCasp9, F406T (protein)
chain: VDGFGDVGALESLRGNADLAYILSMEPCGHCLIINNVNFCRESGLRTRTGSNIDCEKLRRRFSSLHFMVEVKGDLTAKKMVLALLELARQDHGALDCCVVVILSHGCQASHLQFPGAVYGTDGCPVSVEKIVNIFNGTSCPSLGGKPKLFFIQACGGEQKDHGFEVASTSPEDESPGSNPEPDATPFQEGLRTFDQLDAISSLPTPSDIFVSYSTFPGFVSWRDPKSGSWYVETLDDIFEQWAHSEDLQSLLLRVANAVSVKGIYKQMPGCFNTLRKKLFFKTSASRA
Basal Activity (relative to wild type/unmodified Caspase-9): lowered basal activity; also recorded: Decreased

B9: F406L: modified iCasp9, F406L (protein)
chain: VDGFGDVGALESLRGNADLAYILSMEPCGHCLIINNVNFCRESGLRTRTGSNIDCEKLRRRFSSLHFMVEVKGDLTAKKMVLALLELARQDHGALDCCVVVILSHGCQASHLQFPGAVYGTDGCPVSVEKIVNIFNGTSCPSLGGKPKLFFIQACGGEQKDHGFEVASTSPEDESPGSNPEPDATPFQEGLRTFDQLDAISSLPTPSDIFVSYSTFPGFVSWRDPKSGSWYVETLDDIFEQWAHSEDLQSLLLRVANAVSVKGIYKQMPGCFNLLRKKLFFKTSASRA
Basal Activity (relative to wild type/unmodified Caspase-9): lowered basal activity and dead

B10: D330A-N405Q: modified iCasp9 double mutant (SEQ ID NO: 28) (protein)
chain: GFGDVGALESLRGNADLAYILSMEPCGHCLIINNVNFCRESGLRTRTGSNIDCEKLRRRFSSLHFMVEVKGDLTAKKMVLALLELARQDHGALDCCVVVILSHGCQASHLQFPGAVYGTDGCPVSVEKIVNIFNGTSCPSLGGKPKLFFIQACGGEQKDHGFEVASTSPEDESPGSNPEPDATPFQEGLRTFDQLAAISSLPTPSDIFVSYSTFPGFVSWRDPKSGSWYVETLDDIFEQWAHSEDLQSLLLRVANAVSVKGIYKQMPGCFQFLRKKLFFKTS
basal activity: relative SEAP activity Units (1 μg iCasp9 per million cells): 205772 Units | basal activity: relative SEAP activity Units (2 μg iCasp9 per million cells): 174366 Units | IC50 (AP1903, SEAP screening assay): 0.05 nM | Basal Activity (relative to wild type/unmodified Caspase-9): intermediate; also recorded: Decreased
